Laboratory results taken from patent US6569458B1, “Process for producing small particles of biologically active molecules” (Alkermes Controlled Therapeutics, Inc., priority 1989, dated 2003).

Legend:
[1] = Diameter of particles by light microscopy; assay type: physicochemical
Method: A 250 mg sample of the enzyme horse radish peroxidase (HRP) (Sigma Chemical Co, St. Louis, Mo.) was dissolved in 10 ml of a 0.05 M phosphate buffer solution having a pH of 7.2. The solution was atomized through an ultrasonic nozzle (SonoTek Corp., Model 8700-60MS) into a stirred container of liquid nitrogen. The liquid nitrogen containing the frozen atomized spheres was next placed in a −80° C. freezer until the liquid nitrogen evaporated, about one to two hours. The frozen protein spheres were then placed in a lyophilizer (Virtis Company Inc., Model 10-MR-TR) for at least 12 hours to produce porous particles.
The sample prepared from 100 mg ammonium bicarbonate/ml was suspended in ethyl acetate and fragmented by ultrasonic irradiation.
This was ultrasonicated to form frozen particles which were lyophilized according to the procedure of Example 1.

[2] = Particle size analysis of fragmented particles (Microtrac small particle analyzer); assay type: physicochemical; conditions: for mean particle diameter / size distribution for the effective diameters: ammonium bicarbonate buffer, ethyl acetate, ultrasonic irradiation; for mean particle diameter after five minutes sonication: atomized into liquid nitrogen, lyophilized, sonicated in ethanol 5 min; for Particle Size: sonicated 5 min
Method: A 50 mg sample of the lyophilized microspheres was suspended in 5 ml of 100 percent ethanol solution and cooled in an ice water bath to 0° C. With continuous cooling, the HRP porous particles were then exposed to an ultrasonic probe (Virtis Company Inc., Virsonic 300) for different times. Samples were analyzed for particle size diameter on a Microtrac Model 7995 Small Particle Analyzer (Leeds and Northrup).
The hemoglobin particles were suspended in ethyl acetate and fragmented by subjecting them to ultrasonic irradiation with cooling by an ice bath.

[3] = Heme absorption, second derivative spectra of processed hemoglobin; assay type: physicochemical, bovine; conditions: homogenized particles stored in ethyl acetate for seven days, dissolved in 0.2 M sodium phosphate pH 7.7
Method: The homogenized hemoglobin particles were stored in ethyl acetate for seven days, after which the solvent was decanted and the hemoglobin dried under vacuum at room temperature. The resulting solid was dissolved in 0.2 M sodium phosphate pH 7.7, and its heme absorption compared with that of freshly dissolved bovine hemoglobin, as well as with hemoglobin denatured in 6 M guanidinium chloride, using a Hewlett Packard diode array spectrophotometer. In order to accentuate spectral features, the second derivative of absorption with respect to wavelength was obtained for each sample.

[4] = Particle size analysis of fragmented particles (Microtrac small particle analyzer); assay type: physicochemical; conditions: ethyl acetate
[5] = Scanning electron micrographs (SEM) of particles; assay type: physicochemical
Method: 125 mg bovine hemoglobin dissolved in 5 ml 0.05 M ammonium bicarbonate was formed into particles by spraying and lyophilization, according to the procedure of Example 1. […] A control solution containing only ammonium bicarbonate was also sprayed and lyophilized as described in Example 1.
The hemoglobin particles were suspended in ethyl acetate and fragmented by subjecting them to ultrasonic irradiation with cooling by an ice bath. When the resulting particles were subjected to particle size analysis using a Leeds & Northrup Microtrac small particle analyzer, the mean particle diameter was 3.7±2.8 micrometers.

[6] = HRP enzyme activity, rate of oxidation of p-anisidine; assay type: biochemical
Method: The activity of the HRP was determined after the lyophilization step and after the ultrasonication step. The method used to determine the enzyme activity is based upon the rate of oxidation of p-anisidine and is described in detail in The Worthington Enzyme Manual, Worthington, D. D., (ed.), Worthington Biochemical Corp., Freehold, N.J., p. 254 (1988).

[7] = SOD enzyme activity, inhibition of the reduction of nitro-blue tetrazolium by the superoxide anion; assay type: biochemical
Method: The activity of the SOD was determined after the lyophilization step and after the ultrasonication step. The method used to determine the enzyme activity is based upon the ability of SOD to inhibit the reduction of nitro-blue tetrazolium by the superoxide anion. This assay is described in detail by Winterbourne, et al., in “The Estimation of Red Cell Superoxide Dismutase Activity,” J. Lab. Clin. Med., 85, 337 (1975). After the lyophilization step, the SOD had 94% of its original activity. After the ultrasonication step, the SOD has 91% of its original activity.

In the case of `NCC(=O)O` [Glycine], the “mean diameter of porous particles” value ([1]; light microscopy, after lyophilization, before ultrasonication) is reported as 24.4±14.6 micrometers and the “mean diameter after ultrasonication” value ([2]; […] solution in deionized water, ultrasonication for 4 min) is reported as 3.2±1.9 micrometers.

For `C[C@]12CC[C@H]3[C@@H](CCC4=CC(=O)CC[C@@]43C)[C@@H]1CC[C@@H]2O` [testosterone, reference compound], the “mean diameter of resulting particles” value ([2]; […] solution in 1,4 dioxane) was 5.4±2.9 micrometers.

For bovine hemoglobin, the “second derivative heme absorption spectrum compared with fresh hemoglobin” value [3] was “identical”, the “size distribution for the effective diameters” value ([4]; after 80 sec of homogenization) was 7.2±3.7 micrometers and the “particle diameter size distribution” value ([4]; after 300 sec of homogenization) was 6.6±3.7 micrometers. The “length of flat irregular plates (SEM of sonicated particles)” value [5] was ~1.0 micrometer, the “thickness of flat irregular plates (SEM of sonicated particles)” value [5] was 0.1 micrometer and the “mean particle diameter / size distribution for the effective diameters” value [2] was 3.7±2.8 micrometers. For the same molecule, the “mean particle diameter after five minutes sonication” value [2] was 1.8±1.3 micrometers and the “mean particle diameter after 5 minutes sonication” value ([2]; sprayed into liquid argon before lyophilization) was 3.6±2.8 micrometers.

For catalase, the “mean particle diameter after five minutes sonication” value [2] was 4.5±3.3 micrometers.

For dextran, the “mean particle size as a function of solution concentration” value ([2]; 20, 10, 5, 1, 2.5 and 0.5 percent solutions, ethanol, ultrasonicated five minutes) was “smallest particles are produced using 0.5 to 5% dextran solutions”.

For heparin [reference compound], the “mean particle diameter after five minutes sonication” value [2] was 6.9±4.0 micrometers.

For horse radish peroxidase [HRP], the “diameter of the porous spheres after lyophilization” value ([1]; before sonication, range) was 25-35 micrometers, the “original activity retained after each step of the particle size reduction process” value ([6]; after the lyophilization step and after the ultrasonication step, phosphate buffer pH 7.2, ethanol) was ≥ 90% and the “activity retained during the process” value ([6]; ammonium bicarbonate buffer, ethyl acetate, ultrasonic fragmentation (Example 13)) was 90%. The “mean particle size as a function of time of ultrasonication” value ([2]; after 100 seconds ultrasonication) was “under five”, the “mean particle diameter / size distribution for the effective diameters” value [2] was 2.8±2.2 micrometers and the Particle Size ([2]; citrate/phosphate buffer pH 5.2) was 2.9 ± 2.1 µm. For the same molecule, the Particle Size ([2]; phosphate buffer pH 7.2) was 3.5 ± 2.8 µm and the Particle Size ([2]; tris buffer pH 9.1) was 6.2 ± 3.7 µm.

For superoxide dismutase [SOD], the “mean particle diameter after five minutes sonication” value [2] was 2.7±2.1 micrometers, the “original activity after the lyophilization step” value ([7]; after lyophilization) was 94% and the “original activity after the ultrasonication step” value ([7]; after ultrasonication) was 91%.
